In this test the target is IR-Rluc (insulin receptor fused to Rluc) (UniProt P06213). Kind of test: FRET or BRET. For orientation: BRET reads energy transfer from a luciferase to a nearby fluorophore.

“IGF1R-YPET F450A (from UniProt P08069 31-1367) (receptor)” returned a fold change in BRET50 against the wild type of 2 fold.

Source of the values: publication doi:10.1101/2024.03.05.583490.
